Measured values reported in patent US20140242095A1.

Target: human SIRPα V1 expressed on cells (NOR mouse macrophages or CHO cells) (human) (UniProt P78324)
Assay: cell-based binding assay (NOR mouse macrophages)
Parameters: unit not given beside the values
Settings: Fc fusion

Chain of human SIRPα V1 expressed on cells (NOR mouse macrophages or CHO cells) (human) (P78324 31-504): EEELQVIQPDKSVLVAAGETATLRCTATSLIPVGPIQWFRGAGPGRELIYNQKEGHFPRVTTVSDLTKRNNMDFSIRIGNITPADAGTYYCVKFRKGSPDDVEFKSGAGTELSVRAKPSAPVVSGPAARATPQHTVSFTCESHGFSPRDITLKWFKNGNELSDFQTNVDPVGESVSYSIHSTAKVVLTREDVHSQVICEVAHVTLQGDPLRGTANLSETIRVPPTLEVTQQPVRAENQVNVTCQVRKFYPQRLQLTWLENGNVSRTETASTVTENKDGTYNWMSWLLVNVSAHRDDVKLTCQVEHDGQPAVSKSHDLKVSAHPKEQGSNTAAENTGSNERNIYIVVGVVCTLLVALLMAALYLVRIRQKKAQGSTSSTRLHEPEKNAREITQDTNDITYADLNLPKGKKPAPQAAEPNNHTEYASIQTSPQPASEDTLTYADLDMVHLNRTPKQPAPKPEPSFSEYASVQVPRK
Chain of human CD47-Fc fusion protein (Q08722 19-141): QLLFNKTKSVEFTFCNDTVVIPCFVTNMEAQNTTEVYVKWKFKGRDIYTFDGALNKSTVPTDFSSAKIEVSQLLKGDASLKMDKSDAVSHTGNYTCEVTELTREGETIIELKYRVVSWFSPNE

Kd: 8.7 ?
Substance: human CD47-Fc fusion protein (from UniProt Q08722 19-141)
